These results are taken from patent US20260258156A1 (TRIVENI BIO, published 2026).

Bounds are passed on as bounds.

In assay [1] the target is T1, human KLK7, active form (human, UniProt P49862 30-253). The assay is described as follows: cell-based or functional assay.
Assay [2] concerns the target T2, mouse KLK7 (mouse, UniProt Q91VE3 26-249, limits assumed). The assay is described as follows: cell-based or functional assay.
In assay [3] the target is mouse KLK5 (mouse). The assay can be described thus: cell-based or functional assay.
Assay [4] addresses T3, human KLK5, active form (human, UniProt Q9Y337 67-293). The assay is described as follows: cell-based or functional assay.
Assay [5] concerns the target T1, human KLK7, active form. The assay can be described thus: SPR (Biacore), antibody captured on Protein A chip, KLK as analyte, single-cycle kinetics, 25 C.
Description: (§1) All screening assays were performed at 25° C. The running buffer used was 20 mM HEPES, 300 mM NaCl, 0.01% Tween-20, pH 7.5. Antibodies (1 μg/mL) were captured on Fc2-4 of a Series S ProteinA Sensor Chip (Cytiva) flowing at 10 μL/min for 30 s. Kinetics measurements were made in single-cycle kinetics mode with a series of 4-5 concentrations with top concentration of 25-100 nM and serial dilution 4-fold. Contact time was typically 300 s and dissociation time ranged from 1800-3600 s. Flow rate of 30 μL/min was typically used. The sensor chip was regenerated with 10 mM glycine, pH 1.5 with a contact time of 30 s flowing at 50 μL/min.
Assay [6] addresses T2, mouse KLK7. The assay is described as above.
Description: as §1
The target in assay [7] is T4, mouse KLK5 (mouse).
T4 construct: also called mKLK5
The description is as above.
Description: as §1

The target of assay [8] is T3, human KLK5, active form. Described as above.
Description: as §1
For assay [9], the target named is T5, pro-form of human KLK7 (human, UniProt P49862 23-253).
T5 construct: Pro-form (zymogen); also called proform of huKLK7; proKLK7
The assay can be described thus: SPR (Biacore), antibody captured on Protein A chip, proform huKLK7 injected at 0.156-40 nM. (SPR reads the build-up and loss of mass on a sensor chip optically.)
Description: (§2) The sensor chip was regenerated with 10 mM glycine, pH 1.5 with a contact time of 30 seconds flowing at 50 μL/min.

Assay [10] addresses T1, human KLK7, active form. The assay is described as follows: SPR (Biacore), antibody captured on Protein A chip, active huKLK7 injected at 0.156-40 nM.
Description: as §2
Assay [11] concerns the target T6, pro-form of human KLK5 (human, UniProt Q9Y337 23-293).
T6 construct: Pro-form (zymogen); also called proform of huKLK5; proKLK5
The assay can be described thus: SPR (Biacore), antibody captured on Protein A chip, proform huKLK5 injected at 0.156-40 nM.
Description: as §2

The target in assay [12] is T3, human KLK5, active form. The assay is described as follows: SPR (Biacore), antibody captured on Protein A chip, active huKLK5 injected at 0.156-40 nM.
Description: as §2

T1 sequence (P49862 30-253): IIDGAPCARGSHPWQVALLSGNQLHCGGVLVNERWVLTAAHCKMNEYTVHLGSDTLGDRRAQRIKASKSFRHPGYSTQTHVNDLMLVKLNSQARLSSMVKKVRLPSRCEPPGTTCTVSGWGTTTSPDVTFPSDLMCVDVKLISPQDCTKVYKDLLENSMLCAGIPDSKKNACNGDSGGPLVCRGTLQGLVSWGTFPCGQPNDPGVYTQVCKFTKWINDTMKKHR
T2 sequence (Q91VE3 26-249 limits assumed): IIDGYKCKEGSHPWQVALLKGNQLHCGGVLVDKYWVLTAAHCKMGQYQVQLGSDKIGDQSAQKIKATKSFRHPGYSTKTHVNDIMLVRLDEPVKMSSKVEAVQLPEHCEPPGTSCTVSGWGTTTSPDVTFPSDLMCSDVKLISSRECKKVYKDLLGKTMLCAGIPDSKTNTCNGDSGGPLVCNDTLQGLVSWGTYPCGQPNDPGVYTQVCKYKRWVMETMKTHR
T5 sequence (P49862 23-253): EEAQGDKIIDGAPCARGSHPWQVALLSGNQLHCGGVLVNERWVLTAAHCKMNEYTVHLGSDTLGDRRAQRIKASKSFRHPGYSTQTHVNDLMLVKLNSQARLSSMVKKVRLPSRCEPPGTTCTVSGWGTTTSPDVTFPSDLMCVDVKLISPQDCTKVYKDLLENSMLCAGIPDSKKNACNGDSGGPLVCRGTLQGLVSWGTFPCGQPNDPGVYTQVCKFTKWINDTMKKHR

B1: KLK5/KLK7-Dual-Ab2 (antibody, V domains shown)
VH: QLQLQESGPGLVKPSETLSLTCTVSGGSISSDDYYWVWIRQPPGKGLEWIGSIDYFASTYYNPSLKSRVTISVDTSKNQFSLKLSSVTAADTAVYYCARGRPLGYGARHDYYGMDVWGQGTTVTVSS
VL: DIQMTQSPSSLSASVGDRVTITCRASQSISSYLNWYQQKPGKAPKLLIYSASSLQSGVPSRFSGSGSGTDFTLTISSLQPEDFATYYCQQSPYFPPLTFGGGTKVEIK
notes: Captured on a Protein A chip as an antibody; also called KLK5/7-Dual-Ab2
As a reminder, the Kd is the free concentration of one partner at which half of the binding sites on the other are occupied at equilibrium, for simple one-to-one binding. A high value points to weaker binding. With B1, the “IC50(nM), inhibition of protease activity (cleavage of KHLF-AMC)” value came to 0.25 nM in assay [1] and 5.13 nM in assay [2]. The “IC50(nM), inhibition of protease activity (cleavage of BOC-Val-Pro-Arg-AMC)” value was found to be 17.2 nM in assay [3] and 0.25 nM in [4]. Besides, the Kd was 0.0218 nM in assay [5], 1.55 nM in [6], 2.79 nM in assay [7] and 0.01 nM in assay [8].

B2: KLK5/KLK7-Dual-Ab1 (antibody, V domains shown)
VH: QLQLQESGPGLVKPSETLSLTCTVSGGSISSSDYYWGWIRQPPGKGLEWIGSIYYSGSTYYNPSLKSRVTISVDTSKNQFSLKLSSVTAADTAVYYCARGRPLGYGARHYYYGMDVWGQGTTVTVSS
VL: DIQMTQSPSSLSASVGDRVTITCRASQSISSYLNWYQQKPGKAPKLLIYSASSLQSGVPSRFSGSGSGTDFTLTISSLQPEDFATYYCQQSPPFPPLTFGGGTKVEIK
notes: Captured on a Protein A chip as an antibody; also called KLK5/7-Dual-Ab1
For B2, the figures for the Kd in assay [5], in assay [6] and in [8] were 1.82 nM, 1 nM and 1000 nM, respectively.

B3: KLK5/KLK7-Dual-Ab4 (antibody, V domains shown)
VH: QLQLQESGPGLVKPSETLSLTCTVSGGSISSLDYYWVWIRQPPGKGLEWIGSIDYSGDTYYNPSLKSRVTISVDTSKNQFSLKLSSVTAADTAVYYCARGRPLGYGARHYYYAMDVWGQGTTVTVSS
VL: DIQMTQSPSSLSASVGDRVTITCRASQSISSYLNWYQQKPGKAPKLLIYSASSLQSGVPSRFSGSGSGTDFTLTISSLQPEDFATYYCQQSPYFPPLTFGGGTKVEIK
notes: Captured on a Protein A chip or coupled to a CM5 chip as an antibody; also called KLK5/7-Dual-Ab4
For the molecule B3, the binding result in [9] and in [11] was “no binding (tested: 40 nM)” in each case. Further, the dissociation constant Kd in assay [10] was less than 0.05 nM; in assay [12], less than 0.05 nM; in [5] it was 0.002 nM; in assay [6], 0.129 nM; in assay [7], 3.15 nM; in [8], 0.0243 nM. Moreover, the “IC50(nM), inhibition of protease activity (cleavage of KHLF-AMC)” value was 0.16 nM in [1] and 1.77 nM in assay [2]. The “IC50(nM), inhibition of protease activity (cleavage of BOC-Val-Pro-Arg-AMC)” value came to 16.1 nM in [3] and 0.27 nM in assay [4].

B4: KLK5/KLK7-Dual-Ab3 (antibody, V domains shown)
VH: QLQLQESGPGLVKPSETLSLTCTVSGGSISSDDYYWVWIRQPPGKGLEWIGSIDYYASTYYSPSLKSRVTISVDTSKNQFSLKLSSVTAADTAVYYCARGRPLGYGAKHYYYGMDVWGQGTTVTVSS
VL: DIQMTQSPSSLSASVGDRVTITCRASQSISSYLNWYQQKPGKAPKLLIYSASSLQSGVPSRFSGSGSGTDFTLTISSLQPEDFATYYCQQSPYFPPLTFGGGTKVEIK
notes: Captured on a Protein A chip as an antibody; also called KLK5/7-Dual-Ab3
Take B4: the “IC50(nM), inhibition of protease activity (cleavage of KHLF-AMC)” value was 0.21 nM in assay [1] and 5.28 nM in assay [2]. Moreover, the results for the “IC50(nM), inhibition of protease activity (cleavage of BOC-Val-Pro-Arg-AMC)” value in [3] and in [4] were 24.1 nM and 0.25 nM, respectively. For the same molecule, the Kd in [5] was found to be 0.0136 nM; in assay [6] it was 1.11 nM; in assay [7] it was 4.02 nM; in assay [8], 0.141 nM.
